Target: IL-1 receptor (UniProt P14778)
Test: cell-based or functional assay

Sequence of UniProt P14778 (P14778 18-569 limits assumed): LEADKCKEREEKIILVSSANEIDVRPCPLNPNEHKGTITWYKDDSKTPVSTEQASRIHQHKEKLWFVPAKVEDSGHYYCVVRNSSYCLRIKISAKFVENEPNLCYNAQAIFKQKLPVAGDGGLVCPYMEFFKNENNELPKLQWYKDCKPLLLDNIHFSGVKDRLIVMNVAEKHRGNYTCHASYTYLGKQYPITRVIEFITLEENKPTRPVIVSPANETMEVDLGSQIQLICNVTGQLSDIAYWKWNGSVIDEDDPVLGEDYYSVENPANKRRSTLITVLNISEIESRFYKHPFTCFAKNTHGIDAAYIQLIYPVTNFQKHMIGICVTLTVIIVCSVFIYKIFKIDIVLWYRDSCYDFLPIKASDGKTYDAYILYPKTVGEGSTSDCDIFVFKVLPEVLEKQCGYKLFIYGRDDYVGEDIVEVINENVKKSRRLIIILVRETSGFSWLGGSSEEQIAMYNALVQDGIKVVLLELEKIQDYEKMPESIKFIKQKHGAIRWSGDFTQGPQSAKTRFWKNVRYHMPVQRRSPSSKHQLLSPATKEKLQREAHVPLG

## Kineret® (anakinra) (from UniProt P18510 26-177) (ligand)
  IC50 (pM): inhibition of IL-8 released by IL-1β stimulation, human whole blood, 100 pM rhIL-1β: 53.4 pM

Reference: patent US20140017249A1
